Data: paper PMC8054479 (Nature, 2020)

T1: SMCR8 (Smith-Magenis syndrome chromosome region, candidate 8) (human, UniProt Q8TEV9 1-937)
T1 sequence: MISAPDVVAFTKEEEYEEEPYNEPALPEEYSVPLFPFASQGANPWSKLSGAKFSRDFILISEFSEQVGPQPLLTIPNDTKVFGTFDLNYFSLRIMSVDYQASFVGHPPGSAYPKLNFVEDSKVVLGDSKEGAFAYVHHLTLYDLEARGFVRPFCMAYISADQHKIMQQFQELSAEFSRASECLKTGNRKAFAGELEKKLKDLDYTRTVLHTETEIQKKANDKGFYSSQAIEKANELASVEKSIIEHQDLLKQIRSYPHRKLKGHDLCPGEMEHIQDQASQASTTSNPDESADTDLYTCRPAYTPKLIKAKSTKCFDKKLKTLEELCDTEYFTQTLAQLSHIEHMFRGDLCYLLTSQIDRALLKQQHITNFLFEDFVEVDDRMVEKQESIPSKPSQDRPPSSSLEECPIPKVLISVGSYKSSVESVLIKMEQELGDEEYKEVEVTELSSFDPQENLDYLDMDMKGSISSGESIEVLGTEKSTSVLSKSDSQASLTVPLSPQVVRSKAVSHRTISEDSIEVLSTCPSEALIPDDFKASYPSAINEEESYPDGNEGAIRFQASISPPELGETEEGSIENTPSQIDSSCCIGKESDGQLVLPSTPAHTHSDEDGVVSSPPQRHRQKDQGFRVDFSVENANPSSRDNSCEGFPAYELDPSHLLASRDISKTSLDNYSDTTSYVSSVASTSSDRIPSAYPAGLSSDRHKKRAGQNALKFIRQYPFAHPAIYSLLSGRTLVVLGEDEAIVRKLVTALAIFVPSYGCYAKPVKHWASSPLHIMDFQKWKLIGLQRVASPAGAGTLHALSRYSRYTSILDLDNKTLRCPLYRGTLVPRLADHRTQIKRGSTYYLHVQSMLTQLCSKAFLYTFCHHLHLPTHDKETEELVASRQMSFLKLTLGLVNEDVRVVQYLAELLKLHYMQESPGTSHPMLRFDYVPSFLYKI


Target: T1, SMCR8 (Smith-Magenis syndrome …)
Assay: cryo-EM structure

Row | Binder | binding result
1 | WDR41 (WD repeat protein 41) (natural protein) MLRWLIGGGREPQGLAEKSPLQTIGEEQTQNPYTELLVLKAHHDIVRFLVQLDDYRFASAGDDGIVVVWNAQTGEKLLELNGHTQKITAIITFPSLESCEEKNQLILTASADRTVIVWDGDTTRQVQRISCFQSTVKCLTVLQRLDVWLSGGNDLCVWNRKLDLLCKTSHLSDTGISALVEIPKNCVVAAVGKELIIFRLVAPTEGSLEWDILEVKRLLDHQDNILSLINVNDLSFVTGSHVGELIIWDALDWTMQAYERNFWDPSPQLDTQQEIKLCQKSNDISIHHFTCDEENVFAAVGRGLYVYSLQMKRVIACQKTAHDSNVLHVARLPNRQLISCSEDGSVRIWELREKQQLAAEPVPTGFFNMWGFGRVSKQASQPVKKQQENATSCSLELIGDLIGHSSSVEMFLYFEDHGLVTCSADHLIILWKNGERESGLRSLRLFQKLEENGDLYLAV | binds
2 | C9orf72 (natural protein) MSTLCPPPSPAVAKTEIALSGKSPLLAATFAYWDNILGPRVRHIWAPKTEQVLLSDGEITFLANHTLNGEILRNAESGAIDVKFFVLSEKGVIIVSLIFDGNWNGDRSTYGLSIILPQTELSFYLPLHRVCVDRLTHIIRKGRIWMHKERQENVQKIILEGTERMEDQGQSIIPMLTGEVIPVMELLSSMKSHSVPEEIDIADTVLNDDDIGDSCHEGFLLNAISSHLQTCGCSVVVGSSAEKVNKIVRTLCLFLTPAERKCSRLCEAESSFKYESGLFVQGLLKDSTGSFVLPFRQVMYAPYPTTHIDVDVNTVKQMPPCHEHIYNQRRYMRSELTAFWRATSEEDMAQDTIIYTDESFTPDLNIFQDVLHRDTLVKAFLDQVFQLKPGLSLRSTFLAQFLLVLHRKALTLIKYIEDDTQKGKKPFKSLRNLKIDLDLTAEGDLNIIMALAEKIKPGLHSFIFGRPFYTSVQERDVLMTF | binds
